Experimental data from paper PMC3172333.
Where two headings read alike, the source gives them in different places.

How the values were obtained:
[1] = target: cross-linked Aα221-610 oligomers (factor XIIIa cross-linked) (human); experiment: SPR
[2] = target: recombinant Aα221-610 fragment corresponding to the human fibrinogen αC region (non-cross-linked) (human); experiment: SEC
[3] = target: recombinant Aα221-610 fragment corresponding to the human fibrinogen αC region (non-cross-linked) (human); experiment: SEC; remark: listed apart in the source
[4] = target: recombinant Aα221-610 fragment corresponding to the human fibrinogen αC region (non-cross-linked) (human); experiment: SEC; remark: listed apart in the source
[5] = target: recombinant Aα221-610 fragment corresponding to the human fibrinogen αC region (non-cross-linked) (human); experiment: SEC; remark: listed apart in the source
[6] = target: recombinant Aα221-610 fragment corresponding to the human fibrinogen αC region (non-cross-linked) (human); experiment: SEC; remark: listed apart in the source

Q: Which Kd [1] does the source give for human Glu-plasminogen (natural protein) here?
A: 0.458 µM

Q: With “recombinant Aα221-610 fragment corresponding to the human fibrinogen αC region (non-cross-linked) (domain or fragment)” as the substance, how does the percent monomer [2] read?
A: 60%

Q: And the percent oligomers [2]?
A: 5%

Q: What about the percent oligomers (after overnight incubation) [2] of the same substance?
A: 11%

Q: What about the percent oligomers (immediately after dilution) [2] of the same substance?
A: 18%

Q: What about the percent oligomers [3] of the same substance?
A: 60%

Q: What about the percent oligomers [4] of the same substance?
A: 22%

Q: What about the percent monomer [5] of the same substance?
A: 10%

Q: What about the percent oligomers [6] of the same substance?
A: 15%

Q: How did the Kd [1] turn out when “recombinant single-chain tissue type plasminogen activator (enzyme)” was run?
A: 0.44 µM
